# Measured values published in patent US9683988B2, “Cell model and method for screening c-Fms kinase inhibitors” (Institute of Pharmacology and Toxicology Academy of …, priority 2011, dated 2017).
# B1: hrM-CSF: recombinantly expressed human M-CSF (macrophage colony stimulating factor), ligand activating c-Fms (protein, UniProt P09603 33-554, looked up)
# Macrophage colony-stimulating …: EEVSEYCSHMIGSGHLQSLQRLIDSQMETSCQITFEFVDQEQLKDPVCYLKKAFLLVQDIMEDTMRFRDNTPNAIAIVQLQELSLRLKSCFTKDYEEHDKACVRTFYETPLQLLEKVKNVFNETKNLLDKDWNIFSKNCNNSFAECSSQDVVTKPDCNCLYPKAIPSSDPASVSPHQPLAPSMAPVAGLTWEDSEGTEGSSLLPGEQPLHTVDPGSAKQRPPRSTCQSFEPPETPVVKDSTIGGSPQPRPSVGAFNPGMEDILDSAMGTNWVPEEASGEASEIPVPQGTELSPSRPGGGSMQTEPARPSNFLSASSPLPASAKGQQPADVTGTALPRVGPVRPTGQDWNHTPQKTDHPSALLRDPPEPGSPRISSLRPQGLSNPSTLSAQPQLSRSHSSGSVLPLGELEGRRSTRDRRSPAEPEGGPASEGAARPLPRFNSVPLTDTGHERQSEGSFSPQLQESVFHLLVPSVILVLLAVGGLLFYRWRRRSHQEPQRADSPLEQPEGSPLTQDDRQVELPV
# Legend:
# [1] = target: T1, c-Fms kinase in the U2OS-GFP-STAT1/CSF-1R cells (Homo sapiens, UniProt P07333); assay: Effect of the time for treating cells with hrM-CSF on GFP-STAT1 nuclear translocation; assay type: cell-based; settings: 200 ng/mL hrM-CSF; 0-60 minutes
# T1 construct: comprising full-length cDNA of human c-Fms; expressed in transfected cells; host or cells: human osteosarcoma U2OS cells stably expressing GFP-STAT1 (U2OS-GFP-STAT1/CSF-1R)
# T1 sequence (P07333 20-972): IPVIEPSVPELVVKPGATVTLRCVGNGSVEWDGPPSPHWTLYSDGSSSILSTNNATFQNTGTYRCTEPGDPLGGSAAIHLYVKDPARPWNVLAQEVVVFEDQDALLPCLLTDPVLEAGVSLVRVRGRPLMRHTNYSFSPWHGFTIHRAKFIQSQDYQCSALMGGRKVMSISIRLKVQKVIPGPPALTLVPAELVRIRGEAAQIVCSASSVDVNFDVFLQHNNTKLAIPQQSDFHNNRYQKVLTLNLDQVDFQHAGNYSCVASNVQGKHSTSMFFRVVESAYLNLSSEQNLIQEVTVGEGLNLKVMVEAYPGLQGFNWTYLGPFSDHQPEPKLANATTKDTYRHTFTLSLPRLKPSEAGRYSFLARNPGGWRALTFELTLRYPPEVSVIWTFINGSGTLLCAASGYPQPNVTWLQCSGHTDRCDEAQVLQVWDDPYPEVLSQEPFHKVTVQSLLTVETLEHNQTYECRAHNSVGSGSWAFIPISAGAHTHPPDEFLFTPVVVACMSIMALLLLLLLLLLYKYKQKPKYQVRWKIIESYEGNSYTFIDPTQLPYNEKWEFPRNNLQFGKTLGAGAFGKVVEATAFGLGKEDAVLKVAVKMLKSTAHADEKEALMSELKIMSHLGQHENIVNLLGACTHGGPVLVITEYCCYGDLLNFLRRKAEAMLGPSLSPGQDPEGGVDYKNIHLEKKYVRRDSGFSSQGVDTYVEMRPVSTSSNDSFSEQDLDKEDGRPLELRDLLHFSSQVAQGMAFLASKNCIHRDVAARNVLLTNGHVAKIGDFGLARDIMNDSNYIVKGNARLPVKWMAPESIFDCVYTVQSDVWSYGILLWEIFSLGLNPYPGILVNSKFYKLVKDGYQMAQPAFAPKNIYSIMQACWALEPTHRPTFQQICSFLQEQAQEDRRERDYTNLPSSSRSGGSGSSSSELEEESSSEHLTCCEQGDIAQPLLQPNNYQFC
# Experimental: The steps were as follows: • 1) using the cells prepared in the example 1 to prepare a cell suspension of 1×10^5 cells/mL, seeding the cells to a 96-well culture plate (which was black and transparent at the bottom) at 100 μL/well; and culturing the cells in an incubator at 37° C., 5% CO2, 80% humidity for 24 hours; • 2) washing the cells twice with the cell analytic liquid at 100 μL/well for each time, discarding the solution, and adding the cell analytic liquid at 50 μL/well; • 3) adding hrM-CSF diluted with the cell analytic liquid every 5 minutes, to obtain a final concentration of 200 ng/mL, setting the cell analytic liquid containing no hrM-CSF as the control, incubating the cells in an incubator at 37° C., and treating the cells with the cytokine for 0, 5, 10, 15, 20, 25, 30, 35, 40, 45, 50, 55, 60 minutes, respectively; • 4) adding the cell fixation solution preheated at 37° C. at 100 μL/well, slightly shaking the culture plate to mix the mixture uniformly, and placing the plate in dark at room temperature for 20 minutes; • 5) discarding the solution, adding 1×PBS solution that contains hoechst33342 at 200 μL/well, and placing the plate in dark at room temperature for 30 minutes; and • 6) obtaining the cell image by using In Cell Analyzer 2000, and analyzing the extent of nuclear translocation of GFP-STAT1 by using Nuclear Trafficking Analysis Module.
# [2] = target: T1, c-Fms kinase in the U2OS-GFP-STAT1/CSF-1R cells; assay: Dose-effect of hrM-CSF inducing GFP-STAT1 nuclear translocation in U2OS-GFP-STAT1/CSF-1R cells; assay type: cell-based; settings: 30 minutes
# Experimental: In order to quantitatively detect the extent of nuclear translocation of GFP-STAT1 induced by hrM-CSF, in this Example, in Cell Analyzer 1000 or In Cell Analyzer 2000 was used to obtain the cell image of GFP-STAT1 nuclear translocation. The cell image obtained was analyzed by using Nuclear Trafficking Analysis Module, wherein the translocation index represents the extent of nuclear translocation of GFP-STAT1. Translocation index equals to the ratio of the mean fluorescence intensity of nucleus to the mean fluorescence intensity of cytoplasm of the cells obtained per well. The steps were as follows: • 1) seeding the cells to a 96-well culture plate (which was black and transparent at the bottom), culturing in an incubator at 37° C., 5% CO2, 80% humidity for 24 hours; • 2) washing the cell twice with serum-free DMEM medium that contains 4500 mg/L glucose, 4 mM L-glutamine, 0.2% BSA and 10 mM HEPES (hereafter referred to as cell analytic liquid), wherein the cell analytic liquid was added at 100 μL/well for each time; after that, adding 50 μL cell analytic liquid to each well; • 3) adding the cell analytic liquid that contains hrM-CSF at 50 μL/well, […], and incubating the cells in an incubator at 37° C. for 30 minutes; • 4) fixing the cells with 8% formaldehyde diluted with 1×PBS solution and preheated at 37° C. at 100 μL/well, and placing the plate in dark at room temperature for 20 minutes; • 5) discarding the cell fixation solution, adding 1×PBS solution that contains hoechst33342 at 200 μL/well, placing the plate in dark at room temperature for 30 minutes; • 6) obtaining the cell image by using In Cell Analyzer 1000, analyzing the extent of nuclear translocation of GFP-STAT1 by using Nuclear Trafficking Analysis Module. […]
molecule,measurement,setting,value
B1,treatment time at which extent of GFP-STAT1 nuclear translocation reached the maximum,[1],30 min
same,concentration of hrM-CSF at which extent of nuclear translocation of GFP-STAT1 reached the maximum,[2],600 ng/mL
same,concentration of hrM-CSF at which nuclear translocation of GFP-STAT1 began,[2],10 ng/mL
same,median effective concentration (EC50) of hrM-CSF for inducing GFP-STAT1 nuclear translocation,[2]; n=6,0.0435 ± 0.00368 µg/mL
